# In patent publication US20260008815A1, “CYCLIC PEPTIDE OR SALT THEREOF, AND USES THEREOF” (FUJIFILM Corporation, priority 2023, published 2026):
# Numbered stars: 1 amine (or outer) side, 2 acyl side, 3 side chain; on linkers, the order of the positions; unused ones are H or OH. Bridge positions count the residues as written; N and C are the ends. Ends that are not written are not given here. acetyl = acetyl (haloacetyl before ring closure) on the side-chain amine, O=C(C[*:1])[*:2]; COCH2 = acetyl group that carries the bridge
# Target: T1, Recombinant Human FGFR2 alpha (IIIc) Fc Chimera Protein (Homo sapiens, UniProt P21802)
# T1 construct: Fc (chimera); purchased R&D systems 712-FR-050
# Test: ELISA binding affinity of enzymatically synthesized peptide to FGFR
# Conditions: ELISA luminescence signal at 10 nmol/L peptide, SEQ ID NO: 47 at 10 nmol/L standardized to 1; enzyme synthesis product
# Outline: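 FGFR2 alpha (IIIc) Fc chimera (5 ng/well) was immobilized, and Myc-tagged peptide was bound 3 h at room temperature, then detected with anti-Myc antibody (2 h) and chemiluminescent substrate. Signal was corrected against FGFR-free wells. Score A–D was the luminescence at 10 nmol/L peptide, normalized to cyclic peptide SEQ ID NO: 47.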
# T1 sequence (P21802 with tags, fused parts or gaps limits assumed): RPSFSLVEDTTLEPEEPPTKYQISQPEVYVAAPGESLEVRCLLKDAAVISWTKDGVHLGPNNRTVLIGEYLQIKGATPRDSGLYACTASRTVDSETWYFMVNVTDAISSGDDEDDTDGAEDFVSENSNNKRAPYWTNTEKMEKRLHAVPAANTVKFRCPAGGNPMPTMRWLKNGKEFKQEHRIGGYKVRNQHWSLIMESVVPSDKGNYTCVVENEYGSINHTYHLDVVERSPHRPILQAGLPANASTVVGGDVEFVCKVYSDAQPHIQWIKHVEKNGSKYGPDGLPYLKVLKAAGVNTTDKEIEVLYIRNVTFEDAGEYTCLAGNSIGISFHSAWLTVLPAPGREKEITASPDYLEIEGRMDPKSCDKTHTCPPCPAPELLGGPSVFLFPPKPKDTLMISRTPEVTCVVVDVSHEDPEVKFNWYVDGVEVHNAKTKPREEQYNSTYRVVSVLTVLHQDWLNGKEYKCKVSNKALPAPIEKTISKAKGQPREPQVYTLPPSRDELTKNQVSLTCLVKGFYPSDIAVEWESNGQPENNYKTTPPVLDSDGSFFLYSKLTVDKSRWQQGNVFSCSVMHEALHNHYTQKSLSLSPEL
row,Evaluation result of binding affinity to FGFR,Substance
1,A (0.7 or more),290 (YCEENYLDPEQYQYFHYFK(COCH2)Y; thioether 2-19) [compound 290]
2,C (0.1 or more and less than 0.5),379 (NCQLYYTYLYLHTLK(COCH2)F; thioether 2-15 (inferred)) [compound 379]
3,A (0.7 or more),278 (YCEENYLDPEQYQYFLYFK(COCH2)Y; thioether 2-19) [compound 278]
4,A (0.7 or more),322 (ACEENYLDPEQYQYFIYFK(COCH2)Y; thioether 2-19 (inferred)) [compound 322]
5,A (0.7 or more),318 (YCEENYLDPEQYQYFIYFK(COCH2)D; thioether 2-19 (inferred)) [compound 318]
6,C (0.1 or more and less than 0.5),378 (QCPRQLYYLYLYLSK(COCH2)I; thioether 2-15 (inferred)) [compound 378]
7,A (0.7 or more),323 (YCAENYLDPEQYQYFIYFK(COCH2)Y; thioether 2-19 (inferred)) [compound 323]
8,C (0.1 or more and less than 0.5),388 (RCHHNFHHARQHGFFYHYK(COCH2)R; thioether 2-19 (inferred)) [compound 388]
9,C (0.1 or more and less than 0.5),381 (VCQEYYLYQYVYELK(COCH2)Y; thioether 2-15 (inferred)) [compound 381]
10,A (0.7 or more),321 (YCEENYLDPEQYQYFIYFK(COCH2)H; thioether 2-19 (inferred)) [compound 321]
11,C (0.1 or more and less than 0.5),405 (QCLTQRVYLRQLAYYRLYRK(COCH2)I; thioether 2-20 (inferred)) [compound 405]
12,A (0.7 or more),316 (YCEENYLDPEQYQYFIYFK(COCH2)S; thioether 2-19 (inferred)) [compound 316]
13,C (0.1 or more and less than 0.5),419 (DCHTREDWQIHHLYQLLYQLK(COCH2)Y; thioether 2-21 via acetyl) [compound 419]
14,C (0.1 or more and less than 0.5),422 (YCTQEQAFRQLAYYQIFRRSK(COCH2)S; thioether 2-21 via acetyl) [compound 422]
15,C (0.1 or more and less than 0.5),387 (RCHHNFHHARQHRFFHHYK(COCH2)R; thioether 2-19 (inferred)) [compound 387]
16,B (0.5 or more and less than 0.7),398 (YCHENYLDPEQHQYFIYFK(COCH2)R; thioether 2-19 (inferred)) [compound 398]

# More lines, now with the values behind:
row,Substance,Evaluation result of binding affinity to FGFR
1,130 (HCDGNWWNSQQFFYLLLYK(COCH2)H; thioether 2-19 (inferred)) [compound 130],A (0.7 or more)
2,85 (RCPQNFINPVQWRYFQHYK(COCH2)N; thioether 2-19 (inferred)) [compound 85],A (0.7 or more)
3,89 (QCPQNFINPVQWRYYQHYK(COCH2)N; thioether 2-19 (inferred)) [compound 89],B (0.5 or more and less than 0.7)
4,239 (YCEENYLDPIQYQYFIYFK(COCH2)Y; thioether 2-19 (inferred)) [compound 239],A (0.7 or more)
5,93 (QCPQNFINPVQWRYFQHWK(COCH2)N; thioether 2-19 (inferred)) [compound 93],A (0.7 or more)
6,39 (QCENWLSQDQWKYFWQYK(COCH2)I; thioether 2-18 (inferred)) [compound 39],A (0.7 or more)
7,194 (YCEENHLDPEQYQYFIYFK(COCH2)Y; thioether 2-19 (inferred)) [compound 194],A (0.7 or more)
8,201 (YCEENYQDPEQYQYFIYFK(COCH2)Y; thioether 2-19 (inferred)) [compound 201],A (0.7 or more)
9,143 (NCEENYLDPEQYQYFIYFKY; Description of Artificial Sequence: Cyclic peptide) [compound 143],A (0.7 or more)
10,172 (YCEYNYLDPEQYQYFIYFK(COCH2)Y; thioether 2-19 (inferred)) [compound 172],A (0.7 or more)
11,154 (YCIENYLDPEQYQYFIYFK(COCH2)Y; thioether 2-19 (inferred)) [compound 154],A (0.7 or more)
12,124 (DCRDLQLFYIYQYLDALK(COCH2)K; thioether 2-18 (inferred)) [compound 124],C (0.1 or more and less than 0.5)
13,252 (YCEENYLDPEQLQYFIYFK(COCH2)Y; thioether 2-19 (inferred)) [compound 252],C (0.1 or more and less than 0.5)
14,34 (CRALLRGAPFHLAEC; disulfide 1-15) [compound 34],D (less than 0.1)
15,80 (QCPQNFINPVQWRYFQHYK(COCH2)N; thioether 2-19 (inferred)) [compound 80],A (0.7 or more)
16,233 (YCEENYLDEEQYQYFIYFK(COCH2)Y; thioether 2-19 (inferred)) [compound 233],A (0.7 or more)
17,202 (YCEENYSDPEQYQYFIYFK(COCH2)Y; thioether 2-19 (inferred)) [compound 202],B (0.5 or more and less than 0.7)
18,142 (WCEENYLDPEQYQYFIYFKY; Description of Artificial Sequence: Cyclic peptide) [compound 142],A (0.7 or more)
19,256 (YCEENYLDPEQHQYFIYFK(COCH2)Y; thioether 2-19 (inferred)) [compound 256],A (0.7 or more)
20,173 (YCEWNYLDPEQYQYFIYFK(COCH2)Y; thioether 2-19 (inferred)) [compound 173],A (0.7 or more)
21,212 (YCEENYLYPEQYQYFIYFK(COCH2)Y; thioether 2-19 (inferred)) [compound 212],A (0.7 or more)
22,178 (YCEDNYLDPEQYQYFIYFK(COCH2)Y; thioether 2-19 (inferred)) [compound 178],A (0.7 or more)
23,51 (VCHSNFLSAVQYAYFYQYKH; Description of Artificial Sequence: Cyclic peptide) [compound 51],A (0.7 or more)
24,160 (YCQENYLDPEQYQYFIYFK(COCH2)Y; thioether 2-19 (inferred)) [compound 160],A (0.7 or more)
25,248 (YCEENYLDPDQYQYFIYFK(COCH2)Y; thioether 2-19 (inferred)) [compound 248],A (0.7 or more)
26,38 (QCSYLYQYVFERYKVTVPK(COCH2)D; thioether 2-19 (inferred)) [compound 38],A (0.7 or more)
27,148 (ECEENYLDPEQYQYFIYFKY; Description of Artificial Sequence: Cyclic peptide) [compound 148],A (0.7 or more)
